Literature values as cited in paper PMC3338619, “Ligand Binding Study of Human PEBP1/RKIP: Interaction with Nucleotides and Raf-1 Peptides Evidenced by NMR and Mass Spectrometry” (PLoS ONE, 2012).

Biological target: Raf-1 tri-phosphorylated peptide (Homo sapiens) (UniProt P04049)

## rPEBP1 (from UniProt P31044)
  Kd: 20 µM
